Measured values taken from the RNAGym collection of RNA variant scans (doi:10.1073/pnas.2313332121).
Fewer inactive variants are shown than the library holds.

B1: TPR 5TU (parent)
chain: GGAUCUUCUCGAUCUAACAAAAAAGACAAAUCUGCCACAAAGCUUGAGAGCAUCUUCGGAUGCAGAGGCGGCAGCCUUCGGUGGCGCGAUAGCGCCAACGUUCUCAACUAUGACACGCAAAACGCGUGCUCCGUUGAAUGGAGUUUAUCAUG

Variants of: B1
Experiment: polymerase ribozyme fitness, log enrichment relative to wild type (log ratio); higher = more active; in vitro selection for triplet polymerase activity
Method in brief: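 PCR was used to build mutant libraries for each subunit of a heterodimeric triplet polymerase ribozyme, which were then transcribed. A single in vitro selection round, in triplicate, used a frozen incubation at −7 °C and recovered extended constructs by gel excision, streptavidin beads and RT-PCR. Fitness is the logarithm of genotype enrichment relative to wild-type enrichment, averaged over replicates with inverse-variance weights. The logarithm is base 2, and after Illumina sequencing only genotypes with ≥10 input reads and ≥1 read per output were kept.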

Variant	polymerase ribozyme fitness (log ratio)
A28C C51A C76G G83C A110U U127G	≤ -4.2
C27G A52G G92A	≤ -4.2
A28G U31G C36A U56A C95A G141C	-3.69
C27G C38U A49C G65C C87G C114A A119G U145A	-4.07
A28C U44A G59A C125A G143C	≤ -4.2
A28C C85G A106C A113C	≤ -4.2
C27U U33G G68C C69U C76U C95A C103U A110C G133A U139G	≤ -4.2
C27U C57A C87A A115U	≤ -4.2
C27U C75A G81A G92A U135A	≤ -4.2
A28U A41C G88C	≤ -4.2
A28U U53A G81C C95G A107U U139A	≤ -4.2
A28C A29U A107U A115G	≤ -4.2
C27U C87A	≤ -4.2
A28U A47C G74C C95U A142C C149A	≤ -4.2
A28G A29U C87G C96A	≤ -4.2
A28C G84A G94U C96G C108G U139C G143C	≤ -4.2
A28C A52U U55G C87G C125U G152A	≤ -4.2
A28G C75G G88A U139G G141C	-3.97
A28U A29G A30U U61A G80C C93A A113U G140U G141A	≤ -4.2
C27U U53A U61A C69G G88C	≤ -4.2
A28G G50C G81C C95G C96U A98C A113U G143U	≤ -4.2
A28U G74A C85U A91U	≤ -4.2
C27U C93U U104A	-3.11
A28G A52C U55A G67C C149G	≤ -4.2

Variant	polymerase ribozyme fitness (log ratio)
A28U A60C C87A C96U	≤ -4.2
A28U A39G A66G C76A G81C	≤ -4.2
C27U C43A A97U A150G	≤ -4.2
A28G G83C	-4.1
A28U G58U C79G G92U	≤ -4.2
A28U C87G C118G	≤ -4.2
C27U U33G C95U	-3.46
A28U	-3.38
A28G	-2.24
A28C	-3.75
C27G C51U G80C G86U	≤ -4.2
C27U C79U C87G U90C C96U A121U U134G	≤ -4.2
A28C G67A G100C A119G C131U U145G	≤ -4.2
C27G C76A C93G	≤ -4.2
A28G A52U G84A C103A	≤ -4.2
A28G A49U U56A A66U U90G A106U C108G A119G	≤ -4.2
A28U A30C C79A	≤ -4.2
A28C U82A	≤ -4.2
A28U C87U A119C A138U G140C	≤ -4.2
C27G C72U G83U A91U C93U	≤ -4.2
C27U U31C A52C U78C U101A C125G	≤ -4.2
A28U G50U G59A	≤ -4.2
A28U U61C G68A G86A A89U G117C	≤ -4.2
A28C C43U U56A A107C	≤ -4.2

Variant	polymerase ribozyme fitness (log ratio)
A28U C79A A91U C108G U130G G143C	≤ -4.2
A28C U55A C75G	≤ -4.2
C27U G46A C75A A91U G94A	≤ -4.2
A28U G42C A52C G100C G117C	≤ -4.2
A28U A64G A66U A73U G81U C95U C114U C149A	≤ -4.2
C27U G50U U55A C96A A110G G133U	-3.94
A28U A37U A73G G92U A106G C118G	≤ -4.2
A28G G34U G80A U102A C108G	≤ -4.2
A28G U53G C85A U104G A106G A138U A147G	≤ -4.2
A28U A73U A91G C125A A137C	≤ -4.2
A28U C54U	-3.76
C27U G83A C95U U102A G126C	-3.56
C27U A47C G128U	≤ -4.2
A28C U151A	≤ -4.2
A28C A30C A41U C57U A107C	≤ -4.2
C27U U61G A64U C96U	≤ -4.2
A28U G62A G65A G94A G136A	≤ -4.2
C27U G62U A120C A122U	-2.46
C27U G94A	-2.73
C27U G58A C96U C116U C118G U144G	-0.836
A28G U61G C95A A97U A107U	≤ -4.2
A28G C116U	-3.63
C27U C63U C87A G141U	≤ -4.2
C27U C54U G83U	-2.12

Variant	polymerase ribozyme fitness (log ratio)
A28U A37C U55A A106C U134G G140A	≤ -4.2
A28U G92A G140C	-3.61
C27U G92U	-1.78
A28G A52C U53C C57U C87A G141A	≤ -4.2
A28U A41U C57A G70C G88U A89U C95A	≤ -4.2
C27U G58C C87A A107U	≤ -4.2
A28C U61A G88A	≤ -4.2
C27U G68C A89G C93A A110G G136C	≤ -4.2
A28U U53G A66G C69A C79G G94C C108G C129U A137U	≤ -4.2
A28U G48A G74C C96U C131A	≤ -4.2
C27U G92C U146C U151G	≤ -4.2
C27G A66G C87U U109A A113U	≤ -4.2
A28C C69U	≤ -4.2
A28C A73C U78G G86C A110U A113U A137C A138U	≤ -4.2
C27U C36A C108G U139G U145C	-3.87
C27U G86A	-2.94
C27U G34C C93A G117A	≤ -4.2
A28U G68U C99U A110G	≤ -4.2
C27G U44G U77G G83C A89U	≤ -4.2
A28C G80C U82G G88C U130C	≤ -4.2
A28C A39U C103U C116G U139G	≤ -4.2
A28G U55A	-2.49
C27U U55A G58C C87U U111C A142U	-4.19
A28G C36U	≤ -4.2

Variant	polymerase ribozyme fitness (log ratio)
A28G A138C C149A	≤ -4.2
C27U G58C U139C	≤ -4.2
A28C U31G A41U G65A C85G G88U C96U C103U U135G	≤ -4.2
A28U A29C U45A G58C C85U C105U A106G	≤ -4.2
C27G A49C G50U C54U C87G	≤ -4.2
A28C U31G C125G	≤ -4.2
C27U C57A	-0.747
A28U A40C C75G C87A C95U C105G A121U	≤ -4.2
A28C U61G G67A C69A C93G A113U G124U	≤ -4.2
A28C A49C C96U G133A U134G	-4.14
A28C G46C G84A C85U C96U C116U C149U	≤ -4.2
A28C C51U C57A A73U C87G U101G A121U	≤ -4.2
C27U G50C C114G	≤ -4.2
C27U G84A A89G	-3.59
C27G G58A C93A C95G	≤ -4.2
A28C C54G C79G C85G U145A	≤ -4.2
A28C C57U G59A U78G G86A A115U	≤ -4.2
A28U A41C C75U G81A C103G C149G	≤ -4.2
C27U C43U C95U A119U G143C U144C	-4.15
A28U A29U G65A C95G C105G U111G A137C G152C	≤ -4.2
C27U G58A A60G G84U	-1.42
C27U G58C C123U	-1.57
A28U G83C G92U C96U	≤ -4.2
C27U C63G C95U C96U C99G	-3.33

Variant	polymerase ribozyme fitness (log ratio)
A28U U61G C87G	-4.14
C27G A106U	-3.92
C27G A40C G48A C63A G70U G81A G92A	≤ -4.2
C27G C38U A39G A73C G94U U146C G152U	≤ -4.2
A28C U61A U134A U148C	≤ -4.2
A28C G86U	≤ -4.2
C27U U31G U55G G94C A113C	≤ -4.2
A28U C54U C63U G71U C108U C114U A137U U139G A150G	≤ -4.2
C27U U33A G92C	-3.92
A28G A60C C76G	≤ -4.2
A28U G42C U44C C75G C96A A115G	≤ -4.2
A28C A52U C87U	≤ -4.2
C27G G67C G141A A147U G152A	≤ -4.2
A28C G34A C38G C72U C76A C96G U151A	≤ -4.2
C27G C63A C85U C87A G136A A138C	≤ -4.2
C27G U56A	-3.69
C27U A47G A52C G83A U146G	-3.62
A28U A41C C96A G141C	-4.02
A28U A41U C79G G86A G136A G152A	≤ -4.2
C27G C96U A106G	-4
A28U A29U U61A G81A C93A	≤ -4.2
A28G G42C C43A U55A	≤ -4.2
A28U C75U G84U G86A C93U A106G A113U	≤ -4.2
A28U C32G A41U A73G C85G G88U G136A	≤ -4.2

Variant	polymerase ribozyme fitness (log ratio)
C27U C36U	-2.88
A28U A47C U130G	≤ -4.2
C27U A39C G83A	≤ -4.2
A28U G80A A91U	≤ -4.2
A28G C43U A113U G117A A138G	≤ -4.2
C27U A28C U44G A52C C93A	-4.1
A28G G34A G83C C118G	≤ -4.2
C27U A40C G59C G92C A98G C108U C132A U151G	≤ -4.2
C27U C51G	-3.3
C27G C95A G141C	-3.77
A28C G83C G128U	≤ -4.2
C27U U55A U56A	-2.25
A28G A41C C96A U145G	≤ -4.2
A28C C43U C76G A110G A138U	≤ -4.2
C27U A49C A98G C99A C125U U148C	≤ -4.2
A28U A66C C72U A91C C114U	≤ -4.2
A28U U44G U82G C87U C114U G133A U146G	≤ -4.2
C27U G59A G67C G86C C99U	≤ -4.2
A28U C35U	-4.12
C27U C43A C75U C96U C105A	≤ -4.2
A28G G50C A122G U145C U148A	≤ -4.2
A28C G46C G84A C85U	≤ -4.2
A28U G67U C103A	≤ -4.2
